Measurements reported in publication PMC9241672.

System: His-ArgR2 (Lactiplantibacillus plantarum AR195)
Assay: BLI
Settings: ArgR2 256-4097 nM; BLI: 10 mM HEPES pH 8.0, 2 mM MgCl2, 0.1 mM EDTA, 200 mM KCl, 1 per mille (w/v) BSA and 2 per mille (v/v) Tween 20 in protein buffer; temperature not stated. …

**Q.** How did the Kd turn out when cla promoter probe was run?
**A.** < 1 pM
